The values that follow come from the DeepSol protein solubility set.

The nature of this data set: soluble on expression in E. coli; label from the status in PepcDB or PDB records.
As for “MSLDSTTIIIYGEKLSDSQRAEVKELLEISDQEMVEEHDVTGQDYADYINGNPRSNMYSSAGIILESQGAGLEVNIVTPENITEVTAEMYENALLTAGAENATVNVVSPVQVSGHSALTGIYKAYDVEGEQLDKERMELANEELNVATDLVDNGDVNQEEVSNLLTEIKKMIAEQNPATREDVEQIVSEQLDQLEINLSEQDRQMLVDLFDKMKDLEIDFGAVKEQLDSITNSIVEKAEDLGLDEGFWDKVANFFRDLFRSIGNLFGEGHHHHHH”, the “soluble on expression in E. coli” value is listed as “soluble”. In the case of “MSLGIKVVLLEKAHEIGEIGAGIQLGPNAFSALDSLGVGEVARQRAVFTDHITMMDAVNAEEVVCIETGQAFRDHFGGPYAVIHRVDIHASVWEAVLTHPDVEYHTSTNVVDIRETEDDVTVFDDRGNSWTGDILIGCDGVKSVVRQSLLGDAPRVTGHVVYRAVIDRADMPEDLRINAPVLWAGPHCHLVHYPLRGGKQYNLVVTFHSRQQEEWGVKDGSKEEVLSYFEGIHPRPRQMLDKPTSWRRWSTADREPVAKWGTKRITLVGDSAHPVAQYMAQGACMALEDAVTLGKALAQCEGDAAQAFALYESVRIPRTARIVWSTREMGRVYHAAGVERQVRNLLWKGKSQAEFYRGMEWLYGWKEDNCLQPREGHHHHHH” it was “not soluble”; in that of “EHRKVERGILAYQPGKLLVRGDTPLFKIERLLGIDLDHIEAETLAGLIYETLKRVPEEEEQMEVEGLRIIIKKMKGPKIVLAKVLKLD”, “not soluble”; in that of “MGSDKIHHHHHHMSGETFEFNIRHSGKVYPITLSTDATSADLKSKAEELTQVPSARQKYMVKGGLSGEESIKIYPLIKPGSTVMLLGTPDANLISKPAKKNNFIEDLAPEQQVQQFAQLPVGFKNMGNTCYLNATLQALYRVNDLRDMILNYNPSQGVSNSGAQDEEIHKQIVIEMKRCFENLQNKSFKSVLPIVLLNTLRKCYPQFAERDSQGGFYKQQDAEELFTQLFHSMSIVFGDKFSEDFRIQFKTTIKDTANDNDITVKENESDSKLQCHISGTTNFMRNGLLEGLNEKIEKRSDLTGANSIYSVEKKISRLPKFLTVQYVRFFWKRSTNKKSKILRKVVFPFQLDVADMLTPEYAAEKVKVRDELRKVEKEKNEKEREIKRRKFDPSSSENVMTPREQYETQVALNESEKDQWLEEYKKHFPPNLEKGENPSCVYNLIGVITHQGANSESGHYQAFIRDELDENKWYKFNDDKVSVVEKEKIESLAGGGESDSALILMYKGFGL”, “not soluble”. Turning to “MEAWKKKKGLFKGARYQCTLEPIEREVLGNLAANISEVLISRAQSAPKDELAELTGMGGGHTEAPEDPGLARLLPDFEMQGDEEFDGDNSLLRSLHENDITRAKLANLQTIGQALGPDGSVFVTVTEEEAQAWVAGLNDIRLYLASSEVQDTEDRDALVEWLAFAQESLLTAMMGSLD”, the “soluble on expression in E. coli” value is recorded as “not soluble”. In the case of “MITLIFPGFNNVHVSGMDIEEKIRKIEEEIQKTPYNKATAHHIGKLKAKISRLKEEALQRKTSSGKGRGFHIKKSGDSTVVLIGFPSVGKSTLLNELTSAESKVGDYQFTTLEIVPGVMEYRGAQIQIFDIPGIITGASRGRGRGREILSVARSADLIVIVLDVFNTDHMDIILRELRDVGIRPNETPPDVIVKRRKLGGVKLSATVELTHLDEKIIRSVLNEYGIHNADVLIRDDITVDQFIDVMEANRAYIPAITVINKIDLVDESYLEGLREKFPEALFISADRDINIDELREEIFNRLGLIRIYLKPQGKKADYDEPLIIREGSTVGDVCQKLHRDFVRKFRHARVWGSSVKFDGQKVGLEHVLNDEDVLRIIIKK” it was “not soluble”; in that of “MAARLAASRIVHAGRGISQPTPFGKRMDRLSNRVWGEVVMPTDTKSLKVVRVMSAEPYETKEQLSPKYYPNLPMFHYLTKMLRFHGLFFDDHVVFRDVQDNLKIIRGKVVRPPIGQGKRAQLRGKK”, “not soluble”. Under “GSHMASMFGKLREKLKSFVKRVEEEVEKEEEEVEKKGLLDRILTVEIKEKDVDKALDELEIDLLEADVALEVVDALREKIKQKLVGKKVRIGTDKGKIIEEAVKEAVSEILETSRRIDLIEEIRKAEKPYVIMFVGFNGSGKTTTIAKLANWLKNHGFSVVIAASDTFRAGAIEQLEEHAKRIGVKVIKHSYGADPAAVAYDAIQHAKARGIDVVLIDTAGRSETNRNLMDEMKKIARVTKPNLVIFVGDALAGNAIVEQARQFNEAVKIDGIILTKLDADARGGAALSISYVIDAPILFVGVGQGYDDLRPFEKEWFLERIFGEENA” stands “soluble”; under “MGSDKIHHHHHHMDLSNLNEKDMALGCKYCIKGEKLVLYITGLCEESCYYCPLSEKRKKKDVIFANEKQINSIEEAVEEARLCGSKGVGITGGNPLLRIERTVEYLKALKEEFGSDFHAHLYTTPKFVSEKNLKLLKDAGLDEIRLHSSKLFNDFENFDKLDFLEKLKLCKNYIKDVGVEIPGIPNFEKEILDLAFEIDKIGVKFLNINELEYSETNYQSLIDRGFSEKDDTTSRISGSFETAKYIIDNFKGKLIIHFCPSSLKDSVQMKNRLINRARNVAKPYEEITEEGLLLKGTINFKDLKDVSEVLEVLKENDVEFELLNDRLLLNPEILEDLIDHLKENNFDFKFSAYISEYYPTSDKLEVERIPLVTKKPNLKLKKK”, “not soluble”; under “MITMKISSRFSIAVHILSILKNNPSSLCTSDYMAESVNTNPVVIRKIMSYLKQAGFVYVNRGPGGAGLLKDLHEITLLDVYHAVNVVEEDKLFHIHEQPNPDCPIGANIQAVLEIILIQAQSAMEEVLRNITMGQLFETLQEKMNA”, “soluble”. In the case of “MAHHHHHHNEKDIGKLKKTFEAFDHNGDGVLTISEIFQCLKLNDNELDTELYFLLKQLDTDGNGLIDYTEFLAACLDHSIFQQDVICRNAFNVFDLDGDGVITKEELFNILSFSAVQVSFSKEIIENLIKEVDANNDGFIDYDEFYKMMTGAK” it was “soluble”. With “MGSDKIHHHHHHMTAPKIIDMQALRIFLAAAKDQNMSIAASKLGLTQSAVSQAIGQLEEQFGIKLLDRNRRPLTLTSAGYVLYERGEQLVSAALNLKGAVLEAGHGVRPAIRLGLVDSVATTCGTSIIKQLMPRVAQLKLQTGLSFDVGAALIDRRVDLAITSEPMHRENGLVRYRVLTEQFVVIFSPGLEVADRENTNLALLSAQLPMIRYRSQSHLGRQAETVLRRADLEIPQFLEVDTADTLTSMVAGGLGWALTTPLCLLQAQEHAKRVGIGFLQSSGDSRSIYLLARGGKFDSLIKDTFDITVSVLKEECLARLAYIHPSLDRHAMMGEWPGIAGHSKTTGARRQPDISSEGIE”, the “soluble on expression in E. coli” value is on record as “not soluble”. Under “MSEQYKQPNTPEPYWRQSTPLPDFKPLQNDLLVDVVIVGGGITGITTAYLLQKRGKKVVILEADRLFNGTTGHTTAKITAQHGLIYDEFIQHFGEDKAKQYYDAQMEAKTFIKNTVQDLSIDCDFQEHDAYIYTNANRYLAKLEREMRAYEKLQINGSLIDSMPLQVPIKKAIVMKGQAQFHPIAYLMKLVQDFIDRGGLIFEHTVATDVDKGEHRTVLTRDGHKVTCDYVVESSHFPFFDRGFYFSRMYADRSYVLGLKVKEPYPGGMYLSAEDPPRSIRHASYQGEDLWLISGETHKTGQGMDTDYHYEALESFSREMFNVTDISYRWSAQDLVTLDRMPYIGPATSNDPHILVATGFRKWGMTNGTIAAHVITDLIIGQVNAYQKLFAPQRFVADPSLRKFFSYNVDVAKHLIDGKTEKGSRTPESLQKDEGDVVNVNGKRAGGYRDTDGALHLVDTTCTHMGCEVSWNHGDRTWDCPCHGSRFSYDGEVVEGPAKKPLKKIDHTLEHHHHHH” stands “soluble”.

Take “MNIMLTGATGHLGTHITNQAIANHIDHFHIGVRNVEKVPDDWRGKVSVRQLDYFNQESMVEAFKGMDTVVFIPSIIHPSFKRIPEVENLVYAAKQSGVAHIIFIGYYADQHNNPFHMSPYFGYASRLLSTSGIDYTYVRMAMYMDPLKPYLPELMNMHKLIYPAGDGRINYITRNDIARGVIAIIKNPDTWGKRYLLSGYSYDMKELAAILSEASGTEIKYEPVSLETFAEMYDEPKGFGALLASMYHAGARGLLDQESNDFKQLVNDQPQTLQSFLQENILEHHHHHH”: the “soluble on expression in E. coli” value is “soluble”. Under “MAHHHHHHMQRDADRMKRKKEEHRDEEEFGAFRFADGSMYEGKFCRRESNADGTAKSQFPSAHPPTTRNAQQQELPPPIPFHHGKGVFKDAGGLVYDGCWVEGDMTGEGLLRFPSGATYEGSMYANSFWGTGTYTWPDGSRYEGQWENNKMHGKGTYIDAKGKRWAGKFHHGQGVGLLAEVSL” stands “soluble”.
